Residue numbers refer to the chain shown, from its start. Like-named read-outs stand apart in the source and are kept apart here.
How the values were obtained:
Claudin 18.2 (human) [1] = target: T1, Claudin 18.2 (human) (human); test: biolayer interferometry (Octet Red), biotinylated hsCLDN18.2-VLPs on streptavidin tips, antibody in solution, 1:1 model; hsCLDN18.2 on biotinylated VLPs on the biosensor tip
T1 construct: Multispanning membrane protein; also called hsCLDN18.2
Description: All biosensor studies were performed in PBS buffer supplemented with 1 mg/mL bovine serum albumin (BSA; PBS-B) at 25° C. using a ForteBio Octet Red biosensor system (Pall-ForteBio, Inc., Menlo Park, CA). […] Antibody binding and dissociation kinetics were determined for serial dilutions of antibody in PBS-B starting at 20 μg/mL. Antibody association was measured for 5 minutes followed by dissociation for up to 45 minutes in buffer. Non-specific binding was assessed using sensor tips with VLPs containing only endogenous proteins (Null VLPs). Data analysis was performed using the Octet data analysis program (v8.1; ForteBio) using a standard 1:1 binding model.

Claudin 18.2 (mouse) [2] = target: T2, Claudin 18.2 (mouse) (mouse, UniProt P56857 10-264); test: flow cytometry, antibody titration on HEK-293T cells transfected with mouse CLDN18.2
T2 construct: Expressed on transfected HEK-293T cells; also called mouse CLDN18.2
T2 chain: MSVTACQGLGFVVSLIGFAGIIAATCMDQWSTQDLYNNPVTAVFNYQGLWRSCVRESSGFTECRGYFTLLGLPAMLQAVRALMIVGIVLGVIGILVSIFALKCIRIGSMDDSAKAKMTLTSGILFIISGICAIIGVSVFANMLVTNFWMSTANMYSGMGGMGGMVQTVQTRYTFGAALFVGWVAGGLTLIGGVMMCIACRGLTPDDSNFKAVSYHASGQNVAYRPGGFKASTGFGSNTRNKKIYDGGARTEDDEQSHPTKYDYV
Excerpt: (§1) Fluorescence was detected using an Intellicyt high-throughput flow cytometer (HTFC; Intellicyt, Albuquerque, NM).”).

Claudin 18.2 (human) [3] = target: T1, Claudin 18.2 (human); test: flow cytometry, antibody titration on HEK-293T cells transfected with human CLDN18.2
Excerpt: as §1

[4] = target: T3, Claudin 18.2 (cynomolgus) (cynomolgus); test: flow cytometry, antibody titration on HEK-293T cells transfected with cynomolgus CLDN18.2
T3 construct: Expressed on transfected HEK-293T cells; also called cynomolgus CLDN18.2
T3 chain: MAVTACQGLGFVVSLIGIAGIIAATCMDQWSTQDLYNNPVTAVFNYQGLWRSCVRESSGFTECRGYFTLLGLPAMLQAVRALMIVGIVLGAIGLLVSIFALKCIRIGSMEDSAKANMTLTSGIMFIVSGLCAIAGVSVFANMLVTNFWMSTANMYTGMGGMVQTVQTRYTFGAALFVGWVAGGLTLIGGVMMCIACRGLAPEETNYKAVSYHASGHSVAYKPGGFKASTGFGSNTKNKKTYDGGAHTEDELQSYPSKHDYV
Excerpt: as §1

Claudin 18.2 (human) [5] = target: T1, Claudin 18.2 (human); test: flow cytometry, antibody titration on HEK-293T cells transfected with hsCLDN18.2, APC-labelled anti-human secondary
Excerpt: Fluorescence was detected using an Intellicyt high-throughput flow cytometer (HTFC; Intellicyt, Albuquerque, NM).

Claudin 18.2 (human) [6] = target: T1, Claudin 18.2 (human); test: cell binding (MFI), titration on cells with native Claudin 18.2; cell type and species not stated for this figure
Claudin 18.2 (mouse) [7] = target: T2, Claudin 18.2 (mouse); test: flow cytometry, antibody titration on HEK-293T cells transfected with mouse CLDN18.2
Excerpt: as §1

Claudin 18.2 (human) [8] = target: T1, Claudin 18.2 (human); test: cell binding (MFI), titration on cells with native Claudin 18.2; cell type and species not stated for this figure; remark: listed apart in the source
[9] = target: T3, Claudin 18.2 (cynomolgus); test: flow cytometry, antibody titration on HEK-293T cells transfected with cynomolgus CLDN18.2
Excerpt: as §1

[10] = target: T3, Claudin 18.2 (cynomolgus); test: as above
Excerpt: as §1

Claudin 18.2 (human) [11] = target: T1, Claudin 18.2 (human); test: flow cytometry, antibody titration on HEK-293T cells transfected with human CLDN18.2; remark: listed apart in the source
Excerpt: as §1

Claudin 18.2 (mouse) [12] = target: T2, Claudin 18.2 (mouse); test: flow cytometry, antibody titration on HEK-293T cells transfected with mouse CLDN18.2
Excerpt: as §1

Claudin 18.2 (human) [13] = target: T1, Claudin 18.2 (human); test: cell binding (MFI), titration on cells with native Claudin 18.2; cell type and species not stated for this figure; remark: listed apart in the source
Claudin 18.2 (human) [14] = target: T1, Claudin 18.2 (human); test: biolayer interferometry (Octet Red), biotinylated hsCLDN18.2-VLPs on streptavidin tips, antibody in solution, 1:1 model

B1: MAb1 (IM-44-09B03-1H1B) (antibody, V domains shown)
VH: EVQLLESGGGLVQPGGSLRLSCAASGFTFSSYGMGWVRQAPGKGLEWVAAITRDSSTNYGAAVKGRATISRDNSKNTLYLQMNSLRAEDTAVYYCAKDASNGYCWYTGRGSYSCGAHHIDAWGQGTLVTVSS
VL: SYELTQPPSVSVSPGQTARITCSGGYNGHYGWYQQKPGQAPVTVIYSNNQRPSGIPERFSGSSSGTTVTLTISGVQAEDEADYYCGGYDSSAGIFGGGTKLTVL
notes: Humanized antibody derived from a chicken scFv; tested as 'purified IgG' (bivalent); The general methods say candidate scFv were converted to human IgG1-Fc (scFv-Fc) format; also called IM-44-09B03-1HB; IM-44-09B03-1HIB
Kd (Claudin 18.2 (human) [1]): 0.1 nM
EC50 (read off the curve) (Claudin 18.2 (mouse) [2]): ~4 nM
EC50 (read off the curve) (Claudin 18.2 (human) [3]): ~4 nM
EC50 (read off the curve) [4]: ~5 nM
EC50 (read off the curve) (Claudin 18.2 (human) [5]): ~5 nM
EC50 (read off the curve) (Claudin 18.2 (human) [6]): ~0.8 nM

B2: MAb3 (IM-44-05H06-1HD) (antibody, V domains shown)
VH: EVQLLESGGGLVQPGGSLRLSCAASGFTFRSYAMMWVRQAPGKGLEWVGEISSTGGSTYYGSAVKGRATISRDNSKNTLYLQMNSLRAEDTAVYYCAKSTYGATWKSADSIDAWGQGTLVTVSS
VL: B1 VL with T43L
notes: Humanized antibody derived from a chicken scFv; tested as 'purified IgG' (bivalent); The general methods say candidate scFv were converted to human IgG1-Fc (scFv-Fc) format
Kd (Claudin 18.2 (human) [1]): 1.2 nM
EC50 (read off the curve) (Claudin 18.2 (mouse) [7]): ~9 nM
EC50 (read off the curve) (Claudin 18.2 (human) [8]): ~3 nM
EC50 (read off the curve) [9]: ~9 nM

B3: monovalent form of MAb1 (other)
VH: B1 VH
VL: B1 VL
notes: also called MAb1 monovalent; monomeric MAb1
EC50 (read off the curve) (Claudin 18.2 (human) [6]): ~3 nM

B4: MAb2 (IM-44-01E10-1HA) (antibody, V domains shown)
VH: EVQLLESGGGLVQPGGSLRLSCAASGFTFSSYGMSWVRQAPGKGLEWVAGIGSSGSDTWYADSVKGRFTISRDNSKNTLYLQMNSLRAEDTAVYYCAKDATNGYCWYTGRGSYSCGAHHIDAWGQGTLVTVSS
VL: SYELTQPPSVSVSPGQTARITCSGGSGSYGYYGWYQQKPGQAPVTVIYGTNKRPSGIPERFSGSSSGTTVTLTISGVQAEDEADYYCGGYDSSAGIFGGGTKLTVL
notes: as for B2
EC50 (read off the curve) [10]: ~4 nM
Kd (Claudin 18.2 (human) [1]): 0.3 nM
EC50 (read off the curve) (Claudin 18.2 (human) [11]): ~6 nM
EC50 (read off the curve) (Claudin 18.2 (mouse) [12]): ~6 nM
EC50 (read off the curve) (Claudin 18.2 (human) [13]): ~4 nM
EC50 (read off the curve) (Claudin 18.2 (human) [5]): ~4 nM

B5: monovalent form of MAb2 (other)
VH: B4 VH
VL: B4 VL
notes: also called MAb2 monovalent; monomeric MAb2
EC50 (read off the curve) (Claudin 18.2 (human) [13]): ~10 nM

B6: zolbetuximab (antibody, V domains shown)
VH: QVQLQQPGAELVRPGASVKLSCKASGYTFTSYWINWVKQRPGQGLEWIGNIYPSDSYTNYNQKFKDKATLTVDKSSSTAYMQLSSPTSEDSAVYYCTRSWRGNSFDYWGQGTTLTVSS
VL: DIVMTQSPSSLTVTAGEKVTMSCKSSQSLLNSGNQKNYLTWYQQKPGQPPKLLIYWASTRESGVPDRFTGSGSGTDFTLTISSVQAEDLAVYYCQNDYSYPFTFGSGTKLEIK
Kd (Claudin 18.2 (human) [14]): 0.3 nM
